Experimental data taken from US20230355541A1, “ENZYMATICALLY CLEAVABLE SELF-ASSEMBLED NANOPARTICLES FOR MORPHOGEN DELIVERY” (UNIVERSITY OF SOUTH CAROLINA, priority 2019, published 2023).

Target: T1, BSA (Bos taurus, UniProt P02769)
T1 construct: purchased Jackson ImmunoResearch (West Grove, Pa.)
Experiment: Circular dichroism of BSA grafted to PxSPCP NPs
Format: physicochemical, bovine
Conditions: PBS, 20° C.
Experimental: Bioactivity and Cell Compatibility of BMP2-PxSPCP NPs: Circular dichroism (CD) was used to determine the effect of grafting on secondary structure of the model BSA protein. CD spectra of free or grafted BSA in PBS were collected with a spectropolarimeter (JASCO J815, Essex, UK) at 20° C. with a cuvette of 0.1 cm path length. For evaluation of cell compatibility, hMSCs (1×10^6 cells/mL) and PxSPCP NPs (10 mg) were encapsulated in LPELA hydrogel and cultured in basal medium. At each time point, the hydrogels were stained with cAM/EthD live/dead assay (1 μg/mL) and the stained cells were imaged with an inverted fluorescent microscope (Nikon Eclipse Ti-ε, Nikon, Melville, N.Y.). To quantify cell viability, the medium was replaced with fresh medium containing 10% MTS and incubated for 6 hours at 37° C. and the sample absorbance was measured with a microplate reader (Molecular Devices, San Jose, Calif.) at a wavelength of 490 nm.

T1 sequence (P02769 25-607): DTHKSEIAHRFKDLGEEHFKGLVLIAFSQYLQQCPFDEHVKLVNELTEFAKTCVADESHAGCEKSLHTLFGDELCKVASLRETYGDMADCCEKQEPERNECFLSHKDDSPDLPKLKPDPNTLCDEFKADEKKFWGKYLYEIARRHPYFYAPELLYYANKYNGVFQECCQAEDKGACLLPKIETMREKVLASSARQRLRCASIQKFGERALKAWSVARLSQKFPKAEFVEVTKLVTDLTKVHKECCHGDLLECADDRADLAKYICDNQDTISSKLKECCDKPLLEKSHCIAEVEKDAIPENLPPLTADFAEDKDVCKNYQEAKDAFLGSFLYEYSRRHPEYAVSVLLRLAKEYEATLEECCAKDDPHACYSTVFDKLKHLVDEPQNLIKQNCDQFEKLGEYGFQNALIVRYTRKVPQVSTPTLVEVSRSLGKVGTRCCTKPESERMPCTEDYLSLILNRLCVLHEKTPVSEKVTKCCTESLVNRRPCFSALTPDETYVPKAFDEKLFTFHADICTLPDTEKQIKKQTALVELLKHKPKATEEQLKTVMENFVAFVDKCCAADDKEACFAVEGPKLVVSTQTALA

Substance	CD spectrum of grafted BSA compared with free BSA
BSA-P0.5SPCP NPs: BSA grafted to P0.5SPCP NPs	close to that of free BSA
BSA-P2SPCP NPs: BSA grafted to P2SPCP NPs	slight change
BSA-P5SPCP: BSA grafted to P5SPCP NPs	substantially different
BSA-P7.5SPCP: BSA grafted to P7.5SPCP NPs	substantially different
